Data: the RNAGym collection of RNA variant scans (doi:10.1073/pnas.2313332121)

B1: TPR t1 (parent)
chain: GACCAAUCUGCCCUCAGAGCUCGAGAACAUCUUCGGAUGCAGAGGAGGCAGGCUUCGGUGGCGCGAUAGCGCCAACGUCCUCAACCUCCAAUGCAUCCCACCACAUGAUGAUGCCUGAAGAGCCUUGGUUUUUUG

Variants of: B1
Test: polymerase ribozyme fitness, log enrichment relative to wild type (log ratio); higher = more active; in vitro selection for triplet polymerase activity
Outline: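 Streptavidin-bead capture of gel-excised extended constructs, followed by RT-PCR, closed a single triplicate in vitro selection round. That round began by annealing PCR-built, transcribed mutant libraries of each subunit of a heterodimeric triplet polymerase ribozyme with a biotinylated primer, the partner subunit and triplets, then incubating them frozen at −7 °C. After Illumina sequencing of inputs and outputs, genotypes needed ≥10 input reads and ≥1 read per output. Fitness is the base-2 logarithm of genotype enrichment over wild-type enrichment, using inverse-variance-weighted replicate averages.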

**Q.** For C12U C20G U106C, which “polymerase ribozyme fitness (log ratio)” value is on record?
**A.** -3.81

**Q.** Which “polymerase ribozyme fitness (log ratio)” value does the source give for C12U C15U G17A A83C C85A G117U here?
**A.** -2.34

**Q.** With C12U G39U as the variant, how does the “polymerase ribozyme fitness (log ratio)” value read?
**A.** -0.353

**Q.** With C12U G39C as the variant, how does the “polymerase ribozyme fitness (log ratio)” value read?
**A.** -0.515

**Q.** With C12G U38C G69U C123A as the variant, how does the “polymerase ribozyme fitness (log ratio)” value read?
**A.** 1.35

**Q.** For C12U C70U C76G U132C, which “polymerase ribozyme fitness (log ratio)” value is on record?
**A.** -0.684

**Q.** With C12U A26U C94U A118G as the variant, how does the “polymerase ribozyme fitness (log ratio)” value read?
**A.** -2.71

**Q.** Which “polymerase ribozyme fitness (log ratio)” value does the source give for C12U C20U U21A G25U A43U C56A C115A A121U U130A here?
**A.** -8.29

**Q.** For C12G G71U G77A, which “polymerase ribozyme fitness (log ratio)” value is on record?
**A.** -0.248

**Q.** With C12U G42U G52U A66U C72U C115A G117A as the variant, how does the “polymerase ribozyme fitness (log ratio)” value read?
**A.** -6.98

**Q.** Which “polymerase ribozyme fitness (log ratio)” value does the source give for C12U G36U C94U A111G U116A here?
**A.** -2.07

**Q.** For C12G C102A, which “polymerase ribozyme fitness (log ratio)” value is on record?
**A.** -1.85

**Q.** With C12G C102U as the variant, how does the “polymerase ribozyme fitness (log ratio)” value read?
**A.** -1.38

**Q.** Which “polymerase ribozyme fitness (log ratio)” value does the source give for C12G G128A here?
**A.** -1.65

**Q.** For C12U A43C C72A A90U, which “polymerase ribozyme fitness (log ratio)” value is on record?
**A.** -0.685

**Q.** Which “polymerase ribozyme fitness (log ratio)” value does the source give for C12U A18U C114A G128A U130A here?
**A.** -3

**Q.** Which “polymerase ribozyme fitness (log ratio)” value does the source give for C12U C72G C86U C104U G122A here?
**A.** -0.0421

**Q.** For C12U G17A U59A G61C C124A, which “polymerase ribozyme fitness (log ratio)” value is on record?
**A.** -1.65

**Q.** With C12G U14C C85U C86U as the variant, how does the “polymerase ribozyme fitness (log ratio)” value read?
**A.** -1.22

**Q.** With C12G C115U as the variant, how does the “polymerase ribozyme fitness (log ratio)” value read?
**A.** -1.38

**Q.** With C12G C115A as the variant, how does the “polymerase ribozyme fitness (log ratio)” value read?
**A.** -0.408

**Q.** With C12G U21C A29U G61A C123U U131A as the variant, how does the “polymerase ribozyme fitness (log ratio)” value read?
**A.** -2.39

**Q.** For C12U G44A U131A, which “polymerase ribozyme fitness (log ratio)” value is on record?
**A.** -1.07

**Q.** With C12U A37C A46U as the variant, how does the “polymerase ribozyme fitness (log ratio)” value read?
**A.** -1.38

**Q.** With C12G G61A as the variant, how does the “polymerase ribozyme fitness (log ratio)” value read?
**A.** 0.388

**Q.** With C12G G61U as the variant, how does the “polymerase ribozyme fitness (log ratio)” value read?
**A.** 0.811

**Q.** For C12U A41U A66U, which “polymerase ribozyme fitness (log ratio)” value is on record?
**A.** -2.82

**Q.** With C12G G57C as the variant, how does the “polymerase ribozyme fitness (log ratio)” value read?
**A.** -0.0296

**Q.** With C12U C53U as the variant, how does the “polymerase ribozyme fitness (log ratio)” value read?
**A.** 0.906

**Q.** For C12U A29G U125A, which “polymerase ribozyme fitness (log ratio)” value is on record?
**A.** -1.53

**Q.** Which “polymerase ribozyme fitness (log ratio)” value does the source give for C12U C34A G63C here?
**A.** -3.05

**Q.** For C12U C34A G63A, which “polymerase ribozyme fitness (log ratio)” value is on record?
**A.** -5.16

**Q.** Which “polymerase ribozyme fitness (log ratio)” value does the source give for C12U G19C A46U U112A here?
**A.** -0.273

**Q.** Which “polymerase ribozyme fitness (log ratio)” value does the source give for C12G C70A A118G here?
**A.** -0.792

**Q.** Which “polymerase ribozyme fitness (log ratio)” value does the source give for C12G C62G A75G U87C here?
**A.** -3.99

**Q.** With C12U C20A G120A U132C as the variant, how does the “polymerase ribozyme fitness (log ratio)” value read?
**A.** -1.48

**Q.** With C12U A27C C49A G61A U106A C115U as the variant, how does the “polymerase ribozyme fitness (log ratio)” value read?
**A.** -4.69

**Q.** For C12G C62G C82A, which “polymerase ribozyme fitness (log ratio)” value is on record?
**A.** -1.16

**Q.** For C12U A37U G69A G128U, which “polymerase ribozyme fitness (log ratio)” value is on record?
**A.** -5.83

**Q.** With C12U A16G C20U A84U U112G G113U as the variant, how does the “polymerase ribozyme fitness (log ratio)” value read?
**A.** -0.951

**Q.** For C12U C62U U92C, which “polymerase ribozyme fitness (log ratio)” value is on record?
**A.** -1.06

**Q.** For C12G G122A, which “polymerase ribozyme fitness (log ratio)” value is on record?
**A.** -0.383

**Q.** With C12G U55C A90C as the variant, how does the “polymerase ribozyme fitness (log ratio)” value read?
**A.** -1.45

**Q.** For C12U A37C C94G G110A, which “polymerase ribozyme fitness (log ratio)” value is on record?
**A.** -3.55

**Q.** With C12U A74C C79U A121U as the variant, how does the “polymerase ribozyme fitness (log ratio)” value read?
**A.** 1.34

**Q.** Which “polymerase ribozyme fitness (log ratio)” value does the source give for C12U A29U C53G A74U here?
**A.** -2.34

**Q.** With C12U C72A as the variant, how does the “polymerase ribozyme fitness (log ratio)” value read?
**A.** 0.312

**Q.** Which “polymerase ribozyme fitness (log ratio)” value does the source give for C12U A27G G48C here?
**A.** -1.97

**Q.** For C12U C20A C56A U116G, which “polymerase ribozyme fitness (log ratio)” value is on record?
**A.** -4.71

**Q.** With C12U C79A U106C as the variant, how does the “polymerase ribozyme fitness (log ratio)” value read?
**A.** -1.41

**Q.** With C12U G17U C73U C88U C104A U109A as the variant, how does the “polymerase ribozyme fitness (log ratio)” value read?
**A.** -5.21

**Q.** Which “polymerase ribozyme fitness (log ratio)” value does the source give for C12U C15A A43C C72U A108U C123G here?
**A.** -6.32

**Q.** With C12G U112A as the variant, how does the “polymerase ribozyme fitness (log ratio)” value read?
**A.** 1.99

**Q.** With C12G C56A C82A as the variant, how does the “polymerase ribozyme fitness (log ratio)” value read?
**A.** -0.693

**Q.** Which “polymerase ribozyme fitness (log ratio)” value does the source give for C12U G42U here?
**A.** -0.819

**Q.** Which “polymerase ribozyme fitness (log ratio)” value does the source give for C12U G42A here?
**A.** -1.82

**Q.** With C12U A27G C70U C88A C123G U126A as the variant, how does the “polymerase ribozyme fitness (log ratio)” value read?
**A.** -2.52

**Q.** With C12U A18U G19C G35A G48A C72A U112A as the variant, how does the “polymerase ribozyme fitness (log ratio)” value read?
**A.** -6.64

**Q.** Which “polymerase ribozyme fitness (log ratio)” value does the source give for C12U C40G C72G here?
**A.** -1.36

**Q.** For C12G U109A, which “polymerase ribozyme fitness (log ratio)” value is on record?
**A.** -4.88

**Q.** For C12G G19C G57A A119G U131A, which “polymerase ribozyme fitness (log ratio)” value is on record?
**A.** -3.15

**Q.** Which “polymerase ribozyme fitness (log ratio)” value does the source give for C12G C56U A74G G77C here?
**A.** -1.66

**Q.** Which “polymerase ribozyme fitness (log ratio)” value does the source give for C12U A27G C28G G69U here?
**A.** -2.22

**Q.** With C12U C53U C98U U132A as the variant, how does the “polymerase ribozyme fitness (log ratio)” value read?
**A.** -0.748

**Q.** For C12U C31U, which “polymerase ribozyme fitness (log ratio)” value is on record?
**A.** -4.34

**Q.** For C12U C80U G110A U130C, which “polymerase ribozyme fitness (log ratio)” value is on record?
**A.** -0.275

**Q.** For C12U G17C C72G C82G U112C C123U U131C, which “polymerase ribozyme fitness (log ratio)” value is on record?
**A.** -3.8

**Q.** Which “polymerase ribozyme fitness (log ratio)” value does the source give for C12U G42U C49G C73U U96C here?
**A.** -2.57

**Q.** For C12U C85U U112C, which “polymerase ribozyme fitness (log ratio)” value is on record?
**A.** 0.732

**Q.** Which “polymerase ribozyme fitness (log ratio)” value does the source give for C12U C97G C104U here?
**A.** -2.92

**Q.** Which “polymerase ribozyme fitness (log ratio)” value does the source give for C12G C62G here?
**A.** -1.6

**Q.** Which “polymerase ribozyme fitness (log ratio)” value does the source give for C12G G51U here?
**A.** -2.93

**Q.** For C12U A43U G77A C85U U112A, which “polymerase ribozyme fitness (log ratio)” value is on record?
**A.** -0.51

**Q.** With C12U A16U C22G C99U as the variant, how does the “polymerase ribozyme fitness (log ratio)” value read?
**A.** -3.39

**Q.** Which “polymerase ribozyme fitness (log ratio)” value does the source give for C12U A84C C102A here?
**A.** -1.99

**Q.** For C12G C123A U126C, which “polymerase ribozyme fitness (log ratio)” value is on record?
**A.** 0.201

**Q.** With C12U A46C A100G as the variant, how does the “polymerase ribozyme fitness (log ratio)” value read?
**A.** -3.74

**Q.** For C12G U38G G44U U78A, which “polymerase ribozyme fitness (log ratio)” value is on record?
**A.** -1.53

**Q.** With C12U C115A as the variant, how does the “polymerase ribozyme fitness (log ratio)” value read?
**A.** 0.202

**Q.** For C12U G39A C56A G71A, which “polymerase ribozyme fitness (log ratio)” value is on record?
**A.** -4.31

**Q.** Which “polymerase ribozyme fitness (log ratio)” value does the source give for C12U A18C C70U A75U U125G here?
**A.** -5.05

**Q.** With C12U A41U A46C G48A C72U C88A C102U C114G C115U as the variant, how does the “polymerase ribozyme fitness (log ratio)” value read?
**A.** -8.1

**Q.** With C12U G42A A90G G128U as the variant, how does the “polymerase ribozyme fitness (log ratio)” value read?
**A.** -2.7

**Q.** With C12U G36A as the variant, how does the “polymerase ribozyme fitness (log ratio)” value read?
**A.** -0.19
